Laboratory results taken from the RNAGym collection of RNA variant scans (doi:10.1073/pnas.2313332121).
Variants at the floor of the assay were thinned out.

B1: TPR 5TU (parent)
chain: GGAUCUUCUCGAUCUAACAAAAAAGACAAAUCUGCCACAAAGCUUGAGAGCAUCUUCGGAUGCAGAGGCGGCAGCCUUCGGUGGCGCGAUAGCGCCAACGUUCUCAACUAUGACACGCAAAACGCGUGCUCCGUUGAAUGGAGUUUAUCAUG

Variants of: B1
Experiment: polymerase ribozyme fitness, log enrichment relative to wild type (log ratio); higher = more active; in vitro selection for triplet polymerase activity
Outline: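 Input and output libraries were sequenced on Illumina after a single in vitro selection round, run in triplicate on PCR-built, transcribed mutant libraries of each subunit of a heterodimeric triplet polymerase ribozyme. Selection annealed libraries to a biotinylated primer, the partner subunit and triplets, incubated them frozen at −7 °C, then gel-excised extended constructs for streptavidin-bead capture and RT-PCR. Genotypes with ≥10 input reads and ≥1 read per output were kept. Fitness is the logarithm, taken in base 2, of genotype enrichment divided by wild-type enrichment, using inverse-variance-weighted replicate averages.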

Compared with GGAUCUUCUCGAUCUAACAAAAAAGACAAAUCUGCCACAAAGCUUGAGAGCAUCUUCGGAUGCAGAGGCGGCAGCCUUCGGUGGCGUGAUAGCGCCAACGUUCUCAACUAUGACACGCAAAACGCGUGCUCCGUUGAAUGGAGUUGAUCAUG [C87U U146G], GGAUCUUCUCGAUCUAACAAAAAAGACAAAUCUGCCACAAAGCUUGAGAGCAUCUUCGGAUGCAGAGGCGGCAGCCUUCGGUGGCGCAAUCGCGCCAACGUUCUCAACUAUGACACGCAAAACGCGUGCUCCGUUGAAUGGAGUUUAUCAUG [G88A A91C] is lower in “polymerase ribozyme fitness (log ratio)” value: -0.864 for the first, no more than -4.2 for the second.

Compared with GGAUCUUCUCGAUCUAACAAAAAAGACAAAUCUGCCACAAAGCUUGAGAGCAUCUUCGGAUGCAGAGGCGGCAGCCUUCGGUGGCGUGAUAGCGCCAACGUUCUCAACUAUGACACGCAAAACGCGUGCUCGGUUGAAUGGAGUUUAUCAUG [C87U C132G], GGAUCUUCUCGAUCUAACAAAAAAGACAAAUCUGCCACAAAGCUUGAGAGCAUCUUCGGAUGCAGAGGCGGCAGCCUUCGGUGGCGUGAUAGCGCCAACGUUCUCAACUAUGACACGCAAAACGCGUGCUCUGUUGAAUGGAGUUUAUCAUG [C87U C132U] is higher in “polymerase ribozyme fitness (log ratio)” value: -3.72 for the first, -1.11 for the second.

GGAUCUUCUCGAUCUAACAAAAAAGACAAAUCUGCCACAAAGCUUGAGAGCAUCUUCGGAUGCAGAGGCGGCAGCCUUCGGUGGCGCAAUAGCGCCAACGUUCUCAACUAUGACACUCAAAACGCGUGCUCCGUUGAAUGGAGUUUAUCAUG [G88A G117U] and GGAUCUUCUCGAUCUAACAAAAAAGACAAAUCUGCCACAAAGCUUGAGAGCAUCUUCGGAUGCAGAGGCGGCAGCCUUCGGUGGCGCAAUAGCGCCAACGUUCUCAACUAUGACACGCAAAACGCGUGCUCCGUUAAAUGGAGUUUAUCAUG [G88A G136A] are within 0.2 log units of each other in “polymerase ribozyme fitness (log ratio)” value: -3.84 for the first, -3.83 for the second.

GGAUCUUCUCGAUCUAACAAAAAAGACAAAUCUGCCACAAAGCUUGAGAGCAUCUUCGGAUGCAGAGGCGGCAGCCUUCGGUGGCGCAAUAGCGCCAACGUUCUCAACUAUGACACGAAGAACGCGUGCUCCGUUGAAUGGAGUUUAUCAUG [G88A C118A A120G] and GGAUCUUCUCGAUCUAACAAAAAAGACAAAUCUGCCACAAAGCUUGAGAGCAUCUUCGGAUGCAGAGGCGGCAGCCUUCGGUGGCGCAAUAGCGCCAUCGUUCUCCACUAUGACACGCAAAACGCGUGCUCCGUUGAAUGGAGUUUAUCAUG [G88A A98U A106C] cannot be ordered by “polymerase ribozyme fitness (log ratio)” value: no more than -4.2 for the first, no more than -4.2 for the second.

Compared with GGAUCUUCUCGAUCUAACAAAAAAGACAAAUCUGCCACAAAGCUUGAGAGCAUCUUCGGAUGCAGAGGCGGCAGCCUUCGGUGGCGUGAUAGCGCCAACUUUCUCAACUAUGAUACGCAAAACGCGUGCUCCGUUGAAUGGAGUUUAUCAUG [C87U G100U C114U], GGAUCUUCUCGAUCUAACAAAAAAGACAAAUCUGCCACAAAGCUUGAGAGCAUCUUCGGAUGCAGAGGCGGCAGCCUUCGGUGGCGCAAUAGCGCCAACGUUCUCAACUGUGACACGCAAAUCGCGUGCUCCGUUGAAUGGAGUUUAUCAUG [G88A A110G A122U] is higher in “polymerase ribozyme fitness (log ratio)” value: no more than -4.2 for the first, -3.97 for the second.

First: GGAUCUUCUCGAUCUAACAAAAAAGACAAAUCUGCCACAAAGCUUGAGAGCAUCUUCGGAUGCAGAGGCGGCAGCCUUCGGUGGCGCAAUAGCGCCAACGUUCUAAACUAUGACACGCAAAACGCGUGCUCCGUUGAAUGGAGUUUCUCAGG [G88A C105A A147C U151G]
Second: GGAUCUUCUCGAUCUAACAAAAAAGACAAAUCUGCCACAAAGCUUGAGAGCAUCUUCGGAUGCAGAGGCGGCAGCCUUCGGUGGCGCAAUAGCGCCAACGUUCUCAACUAUGACACGCAAAACGCGUGCUCCGUUGAAUGGAGUUUAUUAUG [G88A C149U]
The “polymerase ribozyme fitness (log ratio)” value of the first is lower: no more than -4.2 for the first, -4.04 for the second.

First: GGAUCUUCUCGAUCUAACAAAAAAGACAAAUCUGCCACAAAGCUUGAGAGCAUCUUCGGAUGCAGAGGCGGCAGCCUUCGGUGGCGCAAUAGCACCAAGGUUGACAGCUAUGACACGCAAAACGCGUGCUCCGUUGAAUGGAGUUUAUCAUG [G88A G94A C99G C103G U104A A107G]
Second: GGAUCUUCUCGAUCUAACAAAAAAGACAAAUCUGCCACAAAGCUUGAGAGCAUCUUCGGAUGCAGAGGCGGCAGCCUUCGGUGGCGUGAUAGCGCCAACGUUCUCAACUAUGACACGCAAAACGCGUGCUCCGUUGAAUGGAGUUUAACAUG [C87U U148A]
The “polymerase ribozyme fitness (log ratio)” value of the first is lower: no more than -4.2 for the first, -3.62 for the second.

First: GGAUCUUCUCGAUCUAACAAAAAAGACAAAUCUGCCACAAAGCUUGAGAGCAUCUUCGGAUGCAGAGGCGGCAGCCUUCGGUGGCGUGAUAGCGCCAACGUUCUCAACUAUGACACGCAAAACGCGUGCUCCGUUGAAUGGAUUUUAUCAUG [C87U G143U]
Second: GGAUCUUCUCGAUCUAACAAAAAAGACAAAUCUGCCACAAAGCUUGAGAGCAUCUUCGGAUGCAGAGGCGGCAGCCUUCGGUGGCGCAGUAGCGCCAACGUUCUCAACUAUGACACGCAAAACGCGUGCUCCGUUGAAUGGAGUUUAUCAUG [G88A A89G]
The “polymerase ribozyme fitness (log ratio)” value of the first is higher: -2.69 for the first, -3.67 for the second.

Going from GGAUCUUCUCGAUCUAACAAAAAAGACAAAUCUGCCACAAAGCUUGAGAGCAUCUUCGGAUGCAGAGGCGGCAGCCUUCGGUGGCGCAAUAGCGCCAACGUUCUCAACUAUGACACGCAAAACGCGGGUUCCGUUGAAUGGAGUUUAUCAUG [G88A U127G C129U] to GGAUCUUCUCGAUCUAACAAAAAAGACAAAUCUGCCACAAAGCUUGAGAGCAUCUUCGGAUGCAGAGGCGGCAGCCUUCGGUGGCGUGAUAGCGCCAACGUCCUCAACUAUGACACGCAAAACGCGUGCUCCGUUGAAUGGAGUUUAUCAUG [C87U U102C], the “polymerase ribozyme fitness (log ratio)” value rises from no more than -4.2 to -1.21.

With GGAUCUUCUCGAUCUAACAAAAAAGACAAAUCUGCCACAAAGCUUGAGAGCAUCUUCGGAUGCAGAGGCGGCAGCCUUCGGUGGCGUUAUAGCGCCAACGUUCUCAACUAUGACACGCAAAACGCGUGCUCCGUUGAAUGGAGUUUAUCAUG [C87U G88U] the “polymerase ribozyme fitness (log ratio)” value was no more than -4.2.
